Test results taken from publication PMC5283298.

Key:
HaloTag-KIF21B 1-657 = experiment: single-molecule photobleaching step counting
[1] = molecular target: microtubules (polymer of alpha and beta tubulin); experiment: single-molecule TIRF microscopy on microtubules
[2] = molecular target: HaloTag-KIF21B full-length (FL); experiment: single-molecule photobleaching step counting

microtubules (polymer of alpha and beta tubulin), sequence (P68363 whole entry, chain 1 of 2): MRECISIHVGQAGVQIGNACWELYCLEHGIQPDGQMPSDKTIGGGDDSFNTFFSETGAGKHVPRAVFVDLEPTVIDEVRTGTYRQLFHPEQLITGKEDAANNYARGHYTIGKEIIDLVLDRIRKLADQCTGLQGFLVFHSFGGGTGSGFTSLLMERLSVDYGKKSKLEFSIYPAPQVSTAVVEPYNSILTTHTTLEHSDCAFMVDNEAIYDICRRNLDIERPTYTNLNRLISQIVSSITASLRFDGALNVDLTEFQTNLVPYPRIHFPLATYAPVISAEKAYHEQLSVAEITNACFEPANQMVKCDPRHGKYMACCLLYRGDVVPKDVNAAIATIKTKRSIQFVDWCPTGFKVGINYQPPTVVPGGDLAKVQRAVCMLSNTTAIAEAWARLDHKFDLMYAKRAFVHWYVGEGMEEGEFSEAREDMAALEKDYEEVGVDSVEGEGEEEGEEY
microtubules (polymer of alpha and beta tubulin), sequence (A8K068 whole entry, chain 2 of 2, further chain): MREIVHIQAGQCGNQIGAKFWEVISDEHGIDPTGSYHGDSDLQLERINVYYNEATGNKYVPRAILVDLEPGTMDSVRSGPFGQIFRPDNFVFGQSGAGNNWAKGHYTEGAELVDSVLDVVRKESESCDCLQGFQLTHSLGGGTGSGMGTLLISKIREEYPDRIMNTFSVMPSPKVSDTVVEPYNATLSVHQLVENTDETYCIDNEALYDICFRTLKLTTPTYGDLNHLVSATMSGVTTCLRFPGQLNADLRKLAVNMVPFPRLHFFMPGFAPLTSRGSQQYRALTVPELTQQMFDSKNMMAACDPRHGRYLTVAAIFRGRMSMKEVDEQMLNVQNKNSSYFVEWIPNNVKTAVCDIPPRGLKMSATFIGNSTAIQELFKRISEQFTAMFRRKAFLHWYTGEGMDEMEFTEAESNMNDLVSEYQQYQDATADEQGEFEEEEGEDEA
HaloTag-KIF21B 1-657 (domain or fragment), sequence (O75037 1-657): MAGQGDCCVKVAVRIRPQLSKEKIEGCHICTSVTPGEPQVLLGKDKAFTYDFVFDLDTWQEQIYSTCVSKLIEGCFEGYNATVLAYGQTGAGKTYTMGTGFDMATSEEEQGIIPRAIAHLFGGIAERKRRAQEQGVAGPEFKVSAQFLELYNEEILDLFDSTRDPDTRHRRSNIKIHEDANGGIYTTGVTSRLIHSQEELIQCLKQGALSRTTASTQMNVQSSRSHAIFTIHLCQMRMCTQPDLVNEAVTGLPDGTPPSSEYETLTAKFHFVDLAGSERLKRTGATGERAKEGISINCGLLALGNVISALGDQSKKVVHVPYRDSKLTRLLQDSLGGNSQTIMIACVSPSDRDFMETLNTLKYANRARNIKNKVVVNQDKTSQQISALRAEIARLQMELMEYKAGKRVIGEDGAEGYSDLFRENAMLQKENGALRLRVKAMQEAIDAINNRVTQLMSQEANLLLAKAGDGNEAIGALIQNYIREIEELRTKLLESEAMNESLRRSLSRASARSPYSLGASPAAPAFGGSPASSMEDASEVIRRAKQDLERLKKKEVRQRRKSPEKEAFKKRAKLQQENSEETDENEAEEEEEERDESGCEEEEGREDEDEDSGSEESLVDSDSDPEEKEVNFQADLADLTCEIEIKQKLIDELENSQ
HaloTag-KIF21B full-length (FL) (natural protein), sequence (O75037 whole entry): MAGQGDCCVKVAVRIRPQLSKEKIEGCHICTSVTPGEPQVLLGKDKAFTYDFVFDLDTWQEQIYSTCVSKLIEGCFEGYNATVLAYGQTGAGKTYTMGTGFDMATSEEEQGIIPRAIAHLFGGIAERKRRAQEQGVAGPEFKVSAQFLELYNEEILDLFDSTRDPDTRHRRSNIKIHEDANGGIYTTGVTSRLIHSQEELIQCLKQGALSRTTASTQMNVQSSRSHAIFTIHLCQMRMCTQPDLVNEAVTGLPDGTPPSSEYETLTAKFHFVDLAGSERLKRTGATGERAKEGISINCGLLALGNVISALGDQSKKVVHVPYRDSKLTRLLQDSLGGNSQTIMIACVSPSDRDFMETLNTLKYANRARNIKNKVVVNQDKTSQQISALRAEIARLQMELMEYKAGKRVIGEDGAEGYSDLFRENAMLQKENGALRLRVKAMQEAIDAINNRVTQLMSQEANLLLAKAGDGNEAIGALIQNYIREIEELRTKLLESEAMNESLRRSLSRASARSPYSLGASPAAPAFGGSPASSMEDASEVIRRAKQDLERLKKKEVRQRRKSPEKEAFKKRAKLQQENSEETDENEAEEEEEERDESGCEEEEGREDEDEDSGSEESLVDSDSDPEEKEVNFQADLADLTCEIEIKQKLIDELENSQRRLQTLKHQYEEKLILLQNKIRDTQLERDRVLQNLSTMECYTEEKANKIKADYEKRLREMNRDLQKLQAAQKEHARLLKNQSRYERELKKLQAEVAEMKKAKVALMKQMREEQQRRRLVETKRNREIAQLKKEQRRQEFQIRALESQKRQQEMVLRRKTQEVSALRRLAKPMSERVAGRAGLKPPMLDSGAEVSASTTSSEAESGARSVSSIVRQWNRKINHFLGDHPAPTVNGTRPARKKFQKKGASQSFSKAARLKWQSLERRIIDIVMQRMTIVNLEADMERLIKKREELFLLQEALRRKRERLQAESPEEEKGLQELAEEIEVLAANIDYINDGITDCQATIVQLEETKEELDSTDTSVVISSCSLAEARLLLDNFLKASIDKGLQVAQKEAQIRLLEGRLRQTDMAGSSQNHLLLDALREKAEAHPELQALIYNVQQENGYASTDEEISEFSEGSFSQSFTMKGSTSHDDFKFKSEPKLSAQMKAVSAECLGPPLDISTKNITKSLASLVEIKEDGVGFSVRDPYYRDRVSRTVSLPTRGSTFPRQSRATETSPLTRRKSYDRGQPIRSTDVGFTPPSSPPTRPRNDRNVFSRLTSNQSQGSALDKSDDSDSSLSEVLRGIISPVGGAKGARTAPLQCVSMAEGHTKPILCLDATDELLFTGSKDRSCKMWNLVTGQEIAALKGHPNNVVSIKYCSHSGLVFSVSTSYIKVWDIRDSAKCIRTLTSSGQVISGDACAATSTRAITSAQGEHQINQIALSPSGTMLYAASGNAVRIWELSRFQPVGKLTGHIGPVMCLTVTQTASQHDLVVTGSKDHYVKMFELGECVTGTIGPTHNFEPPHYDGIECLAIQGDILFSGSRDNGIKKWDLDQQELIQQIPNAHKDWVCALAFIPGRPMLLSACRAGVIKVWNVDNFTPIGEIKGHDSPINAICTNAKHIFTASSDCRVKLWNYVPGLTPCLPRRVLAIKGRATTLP

Substance | stoichiometry N (HaloTag-KIF21B 1-657) | particles per μm MT (particles/μm MT) [1] | stoichiometry N [2]
HaloTag-KIF21B 1-657 (domain or fragment) | 2 | 0.067 | 
HaloTag-KIF21B full-length (FL) (natural protein) |  | 0.5 | 2
